According to patent US7303752B2, “Hookworm vaccine” (The George Washington University, priority 2001, dated 2007):
Several values for one entry are separate records, joined by “and”; a condition that tells them apart may be missing. Identical values can stand only once.

B1: Ac-API: A. caninum aspartyl protease inhibitor antigen, SEQ ID NO: 38 (protein, listed as Ancylostoma caninum)
chain: MKLLALSALFALAFAAPRDKRLAVSTITVTGGLGLSTGCVVTGNVLYANGFRVREITPSEQQELVKYQNDVAEYKTALKQAIKEREEKIRARLAGKKVKAVESTNQEDLPKPPQKPSFCTPEDTTQFFFEGCMIQNNKIYVGNTFARDLTQPEISELKEFEKKFKVYQDYVQKQAEQQVNSLFGGSDFFSALFSGGETSKPSTTTVAPELPEDAPEQPPTPNFCTRII
B2: Ac-MEP-1: A. caninum metalloendopeptidase antigen, SEQ ID NO: 14 (protein, listed as Ancylostoma caninum)
chain: MAKLLEVTTGLVVLLGVLGVISVVFNVLTWLKLNENKDDSSPAPKIWNVGEQDNTPVLTNLLVLEKEELAAKLKKTPYEEVDEQTVRQSSVMKLRNIKNALFTIEPVASALPPLRVNDPKYCPSYGEPDKKYAYQEAASYLLSGLDQTVDPCEDLYAFTCNTYLRNHNATDIGVNRIGTYKDAQDDVNAEIVEALEEVNVSDTKWSETERLVKATLFTCVHHTRARKPIDNSKNVLIEMRDLFGGIPFLNHTLKKDIDFFDIMGKFEQNHAMGTLLGAMVSVDFKNVNKHSLFLSQPYLPMARDFYVFPQHTKMVENRVSLINSVLRSFAEAVLDDPSPYLDLMSRSARDVVKLEMQIAMASWPESELRNYAQQHNPRTLNQLKAAYPAIKWDSYFNALLSSVQGVDMNRQNIILTQPSYFGWLNALFNGGADDKTIANYLLVHLILEEADFLGGALKTMVQKSDYVPYALGRGKGVTRVGQQLTRSHDDTVEDANIQCLNSMMTYMPFGPGYVYVKSRKNRDDVVKDIEHQTELVFKNFVNMIGNLNWMTDASLELAMEKADTMVKNYGWPKDLFGNFRDSSKIDAYHKKDYGNIINLYKENITHNYYHIRRTMIKGYSNHESLRLLTEAPKRDHFLLSPALVNAWYIPERNSIAFPYAFWNPPYYNYEYPQACNYAGQGGTAGHELVHGFDDQGVQFAADGSLSDCTWIECGWLEEKSKKGFSDMAQCVVTQYSTQCCPQTGGVTHCANGATTQGENIADLGGQLAAYRAYREYITKERGEEEKRLPGLEQYTPNQIFWITYGYSWCMSQTDSSLIRQLLTDVHSPGSCRVNQVMQDIPEFALDFGCTMGQKMYPEPEQRCPVWVAE
B3: Ac-TMP: A. caninum putative tissue inhibitor of metalloproteinase, SEQ ID NO: 12; E. coli fusion protein (protein, listed as Ancylostoma caninum)
chain: MRVAIVFIACFAVAHACKCEKKPRPPLEKLLCQSQFVTHAKVTKKRIDGYFIYYDLEHKEVYKPKDRSIPIELFSWREKENCGMPDLEEGKEYLIGGKVTDYGDGDLVISVSRCDLLRNWTDVSGEEKKLLGTFKCENQS
modifications: E. coli fusion partner
notes: E. coli fusion protein

Tests used:
Type in all cases: in vivo, dog
A. caninum [1] = test: Canine vaccine trial with Ac-ASP-2, Ac-API, Ac-MEP-1, Ac-APR-1 in AS03, footpad challenge with 500 A. caninum L3; conditions: for worm burdens, Maximum / worm burdens, Minimum / worm burdens, Mean / worm burdens, Median: 5 dogs; for worm burdens, Mean: ASO3 control 203.8000; for worm burdens, Median: ASO3 control 215.0000; for worm burden, Colon, Male, Average / worm burden, Colon, Female, Average / worm burden, Intestine, Female, Average / worm burden, Intestine, Male, Average / worm burden, Total, Average: group average; for worm burden, Colon, Male, Average: AS03 control 5; for worm burden, Colon, Female, Average: AS03 control 9; for worm burden, Intestine, Female, Average: AS03 control 95; for worm burden, Intestine, Male, Average: AS03 control 96; for worm burden, Total, Average: AS03 control 204; for worm burden, Colon, Female / worm burden, Colon, Male / worm burden, Intestine, Female / worm burden, Intestine, Male / worm burden, Total: individual dogs
Protocol: The vaccine trial was designed to test Ac-API, Ac-ASP-2, Ac-MEP-1, Ac-APR-1 formulated with Adjuvant System 03 (AS03) obtained from GlaxoSmithKline (GSK). The rationale for selecting AS03 as an adjuvants is discussed elsewhere (Stoute et al, 1997). […] To make six doses of antigen formulated with AS03, […] of recombinant protein (0.3 ml of antigen at a concentration of 2 mg.ml^−1) was mixed with 1.2 ml of 20 mM Tris-HCl, 0.5 M NaCl, pH 7.9 and 1.5 ml of AS03; the contents of the tube were vortex mixed for 30 seconds then shaken at low speed for 10 minutes. Dogs were immunized with 100 g of formulated antigen in a final volume of 0.5 ml. ASO3 only control was prepared as described above, with PBS included instead of antigen. Formulation of GSK adjuvants were conducted according to the protocol provided by GSK. All injections were performed intramuscularly (IM). Test and control articles were prepared on the day of injection. All animals received 4 immunizations approximately 3 weeks apart.
A. caninum larvae were cultured from eggs collected in the feces of infected dogs. All hookworms in the infective challenge were approximately equal age (17±7 days post hatching). The species identity of the infective larvae were validated using PCR. All dogs were infected by the footpad method with the same dose of 500 L3 of A. caninum (Zhan et al, 2001). Larval challenge occurred on one of three consecutive days (at age 120+/−9 days). Fourteen-sixteen days after the final immunization, dogs were anesthetized using a combination of ketamine and xylazine (20 mg.kg^−1 and 10 mg.kg^−1 respectively), and 500 A. caninum L3 in a final volume of […] were applied to the footpad.

[2] = test system: antibody to recombinant proteins; test: Pre-challenge antibody titer ELISA, trial with Ac-ASP-2, Ac-API, Ac-MEP-1, Ac-APR-1 in AS03; conditions: for antibody response, in words: AS03
Protocol: The vaccine trial was designed to test Ac-API, Ac-ASP-2, Ac-MEP-1, Ac-APR-1 formulated with Adjuvant System 03 (AS03) obtained from GlaxoSmithKline (GSK). The rationale for selecting AS03 as an adjuvants is discussed elsewhere (Stoute et al, 1997). The ten purpose bred beagles were randomized into five arms: immunized with the adjuvant-formulated recombinant proteins or adjuvant only (control). To make six doses of antigen formulated with AS03, […] of recombinant protein (0.3 ml of antigen at a concentration of 2 mg.ml^−1) was mixed with 1.2 ml of 20 mM Tris-HCl, 0.5 M NaCl, pH 7.9 and 1.5 ml of AS03; the contents of the tube were vortex mixed for 30 seconds then shaken at low speed for 10 minutes. Dogs were immunized with 100 g of formulated antigen in a final volume of 0.5 ml. ASO3 only control was prepared as described above, with PBS included instead of antigen. Formulation of GSK adjuvants were conducted according to the protocol provided by GSK. All injections were performed intramuscularly (IM). Test and control articles were prepared on the day of injection. All animals received 4 immunizations approximately 3 weeks apart.
Beagles were immunized with formulated Ac-ASP-2 as previously described (Loukas et al, 2004). The vaccines were administered IM three times beginning at age 62+/−4 days. Boosts were administered to the dogs at intervals of 21 days. Blood was drawn at least once every 21 days and serum was separated from cells by centrifugation. Each animal's specific antibody response was evaluated by indirect ELISA using serum taken prior to the infective challenge (Loukas et al, 2004). Recombinant Ac-ASP-2 was coated onto microtiter plates at a concentration of 5 g.ml^−1. Dog sera were titrated between 1:100 and 1:2×10^6 to determine endpoint titers. Anti-canine IgG1, IgG2 and IgE antibodies conjugated to horse-radish peroxidase (Bethyl Laboratories) were used at a dilution of 1:1,000.

A. caninum [3] = test: Canine vaccine trial with Ac-TMP, Ac-AP, Ac-APR-1, oral challenge with 400 A. caninum L3
Source text: Study dogs and animal husbandry: Following protocol approval by The George Washington University Institutional Animal Care and Use Committee (IACUC), purpose bred, parasite naïve, male beagles 8±1 week of age were purchased, identified by ear tattoo, and maintained in the AALAC (Association for Assessment and Accreditation of Laboratory Animal Care) accredited George Washington University Animal Research Facility. The dogs were housed in a room dedicated for the study, at a room temperature of 70±4° F., with 10-15 air changes per hour comprised of 100 percent fresh air, and 12 hr light cycles alternating with 12 hr dark cycles. The airflow and timer functions were monitored daily. The dogs were fed on a diet of Teklad Certified Dog Chow #8727, supplemented with a canned soft diet in the event of anorexia. The drinking water was piped from a filter plant and delivered via automatc water system; water analysis was performed by the U.S. Army Corps of Engineers. Water from the facilities automatic system is cultured for bacteria and fungi annually. The pens were flushed daily and sanitized every two weeks. Dogs within a given study group were permitted to live together and socialize prior to the hookworm larval challenge, but were caged individually post-infection. All dogs were quarantined for approximately one week before beginning the vaccine trial. Prior to vaccination a complete blood count (CBC), serum chemistries, and a pre-vaccination serum sample were obtained.
Vaccine study design and sample size: The vaccine trial was designed to test three different antigens, each formulated with alum, as well as an alum adjuvant control. A total of 24 dogs were randomly assigned into four groups comprised of 6 dogs each. The canine sample size was selected on the ability to detect a 40-50 percent reduction in the numbers of adult hookworms in the small intestines of the vaccinated group relative to control dogs, at a statistical power of 80 percent (alpha=0.05, two-tailed). The data were derived from the mean and standard deviation of adult hookworms previously recovered from age-matched dogs infected with 400 A. caninum L3 (Hotez et al, 2002).
Recombinant Antigens: Each group of 6 dogs was vaccinated with recombinant hookworm proteins expressed as fusion proteins either in Escherichia coli or in an insect cell line with baculovirus. Ac-AP (Cappello et al, 1995; 1996) and Ac-TMP, were expressed in E. coli as pET 28 (Novagen) fusion proteins containing a polyhistidine tag (Cappello et al, 1996). Ac-APR-1 (Harrop et al, 1996) was expressed in a baculovirus pBacPAK6 vector (Clontech), modified to contain a polyhistidine-encoding sequence and additional restriction enzyme sites (Brindley et al, 2001). Recombinant Ac-AP and Ac-TMP fusion proteins were then purified by nickel affinity chromatography, followed by a second step of purification. In the case of Ac-AP (Cappello et al, 1995; 1996), the recombinant protein was purified by mono-S (Amersham-Pharmacia) ion exchange chromatography, while Ac-TMP (Zhan et al, 2002) was purified by superdex 75 (Amersham-Pharmacia) gel filtration chromatography. Ac-APR-1 (Harrop et al, 1996) was purified by substrate affinity chromatography using pepstatin agarose (Brindley et al, 2001). The antigen stock protein concentration was determined by Pierce Micro BCA assay (Pierce Chemicals) or by the absorbance of the sample at […] using an extinction coefficient that was calculated from the deduced amino acid composition of the fusion protein. The amount of alum adsorbed protein in each dose of antigen was measured by the Pierce Micro BCA assay using a bovine serum albumin standard. The relative purity of each of the antigens relative to contaminating E. coli or insect cell proteins was determined by analysis on sodium dodecyl sulfate polyacrylamide gel electrophoresis (SDS-PAGE). […]

Molecule	worm burdens, Maximum (A. caninum [1])	worm burdens, Minimum (A. caninum [1])	worm burdens, Mean (A. caninum [1])	worm burdens, Median (A. caninum [1])	worm burden, Colon, Male, Average (A. caninum [1])	worm burden, Colon, Female, Average (A. caninum [1])	worm burden, Intestine, Female, Average (A. caninum [1])	worm burden, Intestine, Male, Average (A. caninum [1])	worm burden, Total, Average (A. caninum [1])	worm burden, Colon, Female (A. caninum [1])	worm burden, Colon, Male (A. caninum [1])	worm burden, Intestine, Female (A. caninum [1])	worm burden, Intestine, Male (A. caninum [1])	worm burden, Total (A. caninum [1])	antibody response, in words [2]	Pre-challenge antibody titer, IgG1, GEOMEAN ([2]; geometric mean of group)	Pre-challenge antibody titer, IgG2, GEOMEAN ([2]; geometric mean of group)	Pre-challenge antibody titer, IgG1 ([2]; individual dogs)	Pre-challenge antibody titer, IgG2 ([2]; individual dogs)	also measured
B1	237.00	146.00	187.800	167.0000	5	12	83	87	188	3 and 1 and 12 and 24 and 21	3 and 0 and 2 and 9 and 10	86 and 83 and 66 and 91 (2×)	54 and 83 and 80 and 105 and 115	146 and 167 and 160 and 229 and 237	robust	3,612	32,511	4,500 (4×) and 1,500	40,500 (4×) and 13,500	fecal eggs (fecundity), in words (A. caninum [1]; relative to the control group): significant reduction in fecal eggs; worm burden, in words (A. caninum [1]; versus AS03 control): no remarkable reduction in worm burden; Pre-challenge antibody titer, IgE, GEOMEAN ([2]; geometric mean of group): 100; Pre-challenge antibody titer, IgE ([2]; individual dogs): 100
B2	293.00	109.00	183.4000	129.0000	3	6	91	87	183	0 and 2 and 7 and 9 and 12	0 and 1 and 2 and 5 and 8	64 and 58 and 153 and 130 and 50	65 and 47 and 131 and 124 and 49	129 and 108 and 293 and 268 and 119	weak	100	1,204	100	1,500 (4×) and 500	worm burden reductions in three out of the five vaccinated dogs (A. caninum [1]; versus control mean): exceeded 36%
B3																				% Decrease of adult hookworms in the small intestines relative to alum-injected dogs (A. caninum [3]; group): 10.8%; % Increase of adult hookworms in the colons relative to alum-injected dogs (A. caninum [3]; group): 500%; adult A. caninum hookworms in the colons, Median (A. caninum [3]; group median, alum control 4): 32; adult hookworms in the small intestines, Median (A. caninum [3]; group median, alum control 180): 161; ratio of adult hookworms in the small intestine relative to the colon (A. caninum [3]; vaccinated group, alum-injected dogs 43.9): 6.6
